Measurements published in paper doi:10.1101/2022.05.03.490418.

Tests used:
[1] = biological target: aged human serum albumin (human) (UniProt P02768); test: SEC
[2] = biological target: aged human serum albumin (human) (UniProt P02768); test: SEC + ELISA
[3] = biological target: aged human serum albumin aggregates (human) (UniProt P02768); test: SEC + ELISA

stoichiometry N (HSA molecules) [1]	fold less Aß bound than by fHSA monomers [2]	fold less Aß bound than by fHSA monomers [3]	Substance
8	–	–	aged human serum albumin (from UniProt P02768 25-609) (natural protein)
–	4 times less	12 times less	amyloid beta peptide 1-42
